Here are results for one molecule from patent US20210008175A1, “BACTERIOPHAGE LYSIN AND ANTIBIOTIC COMBINATIONS AGAINST GRAM POSITIVE BACTERIA” (priority 2012, published 2021).

Assay type in all cases: cell-based
One experiment has as its system Proteus mirabilis. Nature of the experiment: MIC, sensitivity of human gut bacteria. The conditions noted are these: N 2.
Experiment [1] has as its system Staphylococcus epidermidis. Nature of the experiment: MIC, broth microdilution (CLSI M07-A9). As to conditions: 11 tested. Background: Dilution methods test growth across graded concentrations, often in twofold steps.
Another experiment has as its system Lactobacillus spp. Nature of the experiment: MIC, sensitivity of human gut bacteria. The conditions noted are these: N 6.
The next experiment deals with Pseudomonas aeruginosa. Nature of the experiment: MIC, broth microdilution (CLSI M07-A9).
A further experiment has as its system Escherichia coli. Nature of the experiment: MIC, broth microdilution (CLSI M07-A9).

B1: PlySs2: bacteriophage lysin derived from Streptococcus suis, amino acid sequence of FIG. 29 (SEQ ID NO: 1), N-terminal CHAP and C-terminal SH3 domain (protein, listed as Streptococcus suis)
chain: MTTVNEALNNVRAQVGSGVSVGNGECYALASWYERMISPDATVGLGAGVGWVSGAIGDTISAKNIGSSYNWQANGWTVSTSGPFKAGQIVTLGATPGNPYGHVVIVEAVDGDRLTILEQNYGGKRYPVRNYYSAASYRQQVVHYITPPGTVAQSAPNLAGSRSYRETGTMTVTVDALNVRRAPNTSGEIVAVYKRGESFDYDTVIIDVNGYVWVSYIGGSGKRNYVATGATKDGKRFGNAWGTFK
Take B1: the “CF-301 MIC” value in the experiment on Proteus mirabilis is over 512 µg/mL; with Lactobacillus spp. it was over 512 µg/mL; with Pseudomonas aeruginosa (human gut bacteria, N 11), over 512 µg/mL; in the experiment on Escherichia coli (human gut bacteria, N 10), over 512 µg/mL. The “MIC 50%” value is 128 µg/mL in experiment [1], over 512 µg/mL with Pseudomonas aeruginosa (5 tested) and over 512 µg/mL with Escherichia coli (6 tested). The “MIC 90%” value in experiment [1] was 512 µg/mL; in the experiment with Pseudomonas aeruginosa (5 tested), over 512 µg/mL; with Escherichia coli (6 tested), over 512 µg/mL. Moreover, the “MIC Range” value is 4 to 512 µg/mL in experiment [1], over 512 µg/mL in the experiment on Pseudomonas aeruginosa (5 tested) and over 512 µg/mL in the experiment on Escherichia coli (6 tested).
